Reference: US20240199757A1 (UNIVERSITY OF CHICAGO, published 2024)
Like-named read-outs stand apart in the source and are kept apart here.

Legend:
[1] = biological target: T1, human NT5E expressed on MDA-MB-231 cells (human, UniProt P21589 27-549); test: flow cytometry on MDA-MB-231 cells, 1 mM ATP
T1 construct: whole, on cells; also called NT5E-expressing MDA-MB-231 cells; CD73
T1 sequence (looked up): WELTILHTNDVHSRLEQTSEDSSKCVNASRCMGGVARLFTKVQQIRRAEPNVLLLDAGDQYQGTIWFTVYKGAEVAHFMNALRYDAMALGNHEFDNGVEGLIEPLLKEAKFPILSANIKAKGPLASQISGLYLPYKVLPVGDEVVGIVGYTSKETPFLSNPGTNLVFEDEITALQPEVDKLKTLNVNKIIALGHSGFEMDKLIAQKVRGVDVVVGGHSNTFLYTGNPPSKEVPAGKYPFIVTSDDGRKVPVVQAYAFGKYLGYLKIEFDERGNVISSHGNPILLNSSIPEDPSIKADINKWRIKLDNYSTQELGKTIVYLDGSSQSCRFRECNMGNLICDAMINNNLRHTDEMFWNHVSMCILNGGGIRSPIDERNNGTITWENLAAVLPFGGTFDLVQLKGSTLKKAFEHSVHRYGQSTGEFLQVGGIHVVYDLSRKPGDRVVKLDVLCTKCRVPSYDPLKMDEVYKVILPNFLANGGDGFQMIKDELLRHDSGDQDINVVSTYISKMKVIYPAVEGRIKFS
Experimental: (§1) Flow cytometry analysis of antibodies binding to human NT5E expressed on MDA-MB-231 cells in ATP-free condition (black) or in 1 mM ATP (red). Top panel: (left) 1780 Fab and (right) 1780 IgG titrations. […] Binding was measured at the indicated range of antibody concentrations and is expressed as mean±st. dev of median fluorescence intensity (MFI) of 1-2 replicates. Data were analyzed using OriginLab, and EC₅₀ values are shown next to the fitted curves.
(§2) Human MDA-MB-231 cells and murine 4T1 cells were grown to 90% confluency, detached with 5 mM EDTA for 15 min at 37° C. and then resuspended in 37° C. lx PBS (#10010031, Gibco) supplemented with 1% FBS and 1OpM ZnCl2. Separate working buffers (WB) of PBS and 1% FBS with or without fixed nucleotide concentrations were used throughout all washing steps to maintain constant condition. In 96-well plates (#3799, Costar), 0.2×10⁶ cells were added per well. The plates were spun at 500×g for 5 min and the supernatant was removed. Anti-NT5E antibodies were diluted to the desired concentration in 100 μL WB, added to the cells and the plates were incubated for 20 min at 37° C. Plates were spun and cells were washed twice with WB then spun a second time. Cells were stained with 100 μL of secondary antibody (Alexa Fluor 647 AffiniPure Goat Anti-Human IgG, F(ab′)2 fragment specific, #109-605-006, Jackson, 1:200) dilution and plates were incubated for 20 min at 37° C. Cells were washed twice with WB then fixed on ice with WB supplemented with 0.5% PFA. Fixing solution was removed by centrifugation and cells were resuspended in cold 1× PBS. Samples were analyzed by flow cytometry using CytoFLEX (Beckman Coulter) and mean fluorescence intensity (MFI) data was extracted using FlowJo software. Resulting binding data was plotted using OriginLab.

[2] = biological target: T1, human NT5E expressed on MDA-MB-231 cells; test: flow cytometry on MDA-MB-231 cells, 1 mM ATP; remark: listed apart in the source
Experimental: as §1, §2

[3] = biological target: T2, murine NT5E expressed on 4T1 cells (murine, UniProt Q61503 29-551); test: flow cytometry on 4T1 cells, single Fab concentration, -ATP
T2 construct: whole, on cells; also called mouse NT5E-expressing 4T1 cells
T2 sequence (looked up): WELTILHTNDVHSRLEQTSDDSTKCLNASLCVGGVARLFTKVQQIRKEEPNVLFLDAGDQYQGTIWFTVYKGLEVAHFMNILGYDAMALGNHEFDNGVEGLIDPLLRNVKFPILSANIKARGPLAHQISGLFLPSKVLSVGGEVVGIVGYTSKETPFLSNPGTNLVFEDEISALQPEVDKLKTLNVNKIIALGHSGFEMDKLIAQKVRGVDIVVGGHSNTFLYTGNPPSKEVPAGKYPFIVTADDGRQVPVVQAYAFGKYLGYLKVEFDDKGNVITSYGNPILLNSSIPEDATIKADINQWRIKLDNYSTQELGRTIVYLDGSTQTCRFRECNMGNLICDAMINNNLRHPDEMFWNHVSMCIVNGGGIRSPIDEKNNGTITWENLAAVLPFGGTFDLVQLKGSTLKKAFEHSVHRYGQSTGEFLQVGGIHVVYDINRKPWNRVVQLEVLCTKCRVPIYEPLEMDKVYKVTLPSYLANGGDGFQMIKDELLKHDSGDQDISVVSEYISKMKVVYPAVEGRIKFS
Experimental: as §2

EC50 [1]: 37 nM
EC50 [2]: 40.8 nM
binding result [3]: no binding (tested: 200 nM)
B1: 1780 Fab (Fab, V domains shown)
VH: EVQLVESGGGLVQPGGSLRLSCAASGFNFYSYSIHWVRQAPGKGLEWVASISSSSGYTYYADSVKGRFTISADTSKNTAYLQMNSLRAEDTAVYYCARYSWWGWHMEGWWGYMNAFDYWGQGTLVTV
VL: DIQMTQSPSSLSASVGDRVTITCRASQSVSSAVAWYQQKPGKAPKLLIYSASSLYSGVPSRFSGSRSGTDFTLTISSLQPEDFATYYCQQAHPKPITFGQGTKVEIKR
